B1: GST-PRDM9-A/24-97 (domain or fragment, human, UniProt Q9NQV7 24-97, looked up)
chain: VKDAFKDISIYFTKEEWAEMGDWEKTRYRNVKRNYNALITIGLRATRPAFMCHRRQAIKLQVDDTEDSDEEWTP
B2: GST-ZNF10-AB fusion protein (domain or fragment)
chain: not shown

Target: tripartite motif containing 28 (TRIM28) (human (endogenous in HeLa), UniProt Q13263 1-835)
Experiment: cell-based or functional assay

tripartite motif containing 28 (TRIM28), sequence (Q13263 whole entry): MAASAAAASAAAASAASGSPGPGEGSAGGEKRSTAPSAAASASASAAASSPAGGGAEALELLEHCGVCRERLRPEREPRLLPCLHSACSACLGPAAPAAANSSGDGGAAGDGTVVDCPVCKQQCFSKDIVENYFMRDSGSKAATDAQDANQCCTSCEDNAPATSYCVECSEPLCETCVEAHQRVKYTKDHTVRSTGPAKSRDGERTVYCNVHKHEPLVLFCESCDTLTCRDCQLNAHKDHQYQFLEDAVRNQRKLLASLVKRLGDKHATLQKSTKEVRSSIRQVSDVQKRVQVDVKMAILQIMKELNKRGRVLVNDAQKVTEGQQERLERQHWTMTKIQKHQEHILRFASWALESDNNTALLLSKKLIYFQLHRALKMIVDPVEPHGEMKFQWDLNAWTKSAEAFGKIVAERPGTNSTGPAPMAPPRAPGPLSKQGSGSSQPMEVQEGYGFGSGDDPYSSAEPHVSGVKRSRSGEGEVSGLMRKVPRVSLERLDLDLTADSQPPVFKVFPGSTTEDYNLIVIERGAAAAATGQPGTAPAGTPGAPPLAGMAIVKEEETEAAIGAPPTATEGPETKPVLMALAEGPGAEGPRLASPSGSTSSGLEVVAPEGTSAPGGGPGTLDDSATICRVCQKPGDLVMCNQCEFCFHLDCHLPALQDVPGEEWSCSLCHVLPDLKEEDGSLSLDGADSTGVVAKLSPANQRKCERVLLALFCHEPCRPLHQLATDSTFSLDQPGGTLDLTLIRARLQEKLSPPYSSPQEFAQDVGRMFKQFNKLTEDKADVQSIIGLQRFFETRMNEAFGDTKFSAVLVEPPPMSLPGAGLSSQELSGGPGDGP

Binder | transcriptional repression factor over Gal4-DBD alone, dual luciferase reporter assay in HeLa cells (KRAB domain as Gal4-DBD fusion)
B1 | 1.3 fold
B2 | ~19 fold
